The values that follow come from US20250074980A1 (BRIGHAM AND WOMEN S HOSPITAL, published 2025).

Residue numbers refer to the chain shown, from its start. In names and notes the source's numbering stands.

The chains are these.
T1: CEACAM6 on transfected HeLa cells (human, UniProt P40199 35-320)
T1 construct: whole, on cells; also called HeLa-CEACAM6; HeLa C6
T1 sequence (looked up): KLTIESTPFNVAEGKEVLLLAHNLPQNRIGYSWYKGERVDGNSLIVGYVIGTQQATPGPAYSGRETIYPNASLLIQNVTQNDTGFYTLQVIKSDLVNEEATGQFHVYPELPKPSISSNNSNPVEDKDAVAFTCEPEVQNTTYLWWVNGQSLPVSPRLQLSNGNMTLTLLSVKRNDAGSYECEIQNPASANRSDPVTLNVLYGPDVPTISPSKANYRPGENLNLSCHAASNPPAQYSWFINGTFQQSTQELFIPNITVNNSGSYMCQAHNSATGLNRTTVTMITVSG

T2: His-tagged CEACAM1 (human, UniProt P13688 35-428)
T2 construct: 45 kDa SPR analyte; also called CEACAM1-HIS; CEACAM1 analyte
T2 sequence: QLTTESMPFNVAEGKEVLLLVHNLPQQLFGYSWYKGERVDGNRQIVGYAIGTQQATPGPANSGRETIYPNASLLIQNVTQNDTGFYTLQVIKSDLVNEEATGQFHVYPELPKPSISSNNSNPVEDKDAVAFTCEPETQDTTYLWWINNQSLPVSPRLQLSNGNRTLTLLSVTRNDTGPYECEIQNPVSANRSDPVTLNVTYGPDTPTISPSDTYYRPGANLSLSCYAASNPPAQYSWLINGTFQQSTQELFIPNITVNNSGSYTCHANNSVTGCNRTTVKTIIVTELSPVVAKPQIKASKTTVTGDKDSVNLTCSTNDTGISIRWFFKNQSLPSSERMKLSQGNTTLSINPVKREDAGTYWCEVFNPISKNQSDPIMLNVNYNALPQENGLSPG

T3: CEACAM3 on transfected HeLa cells (human, UniProt P40198 35-252)
T3 construct: whole, on cells; also called HeLa-CEACAM3; HeLa C3
T3 sequence (looked up): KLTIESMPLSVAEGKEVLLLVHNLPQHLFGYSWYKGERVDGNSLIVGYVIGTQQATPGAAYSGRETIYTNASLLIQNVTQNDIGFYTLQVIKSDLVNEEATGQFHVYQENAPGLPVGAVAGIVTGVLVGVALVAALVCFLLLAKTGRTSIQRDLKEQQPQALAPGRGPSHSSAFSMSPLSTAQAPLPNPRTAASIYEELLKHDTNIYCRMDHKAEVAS

T4: CEACAM8 on transfected HeLa cells (human, UniProt P31997 35-320)
T4 construct: whole, on cells; also called HeLa-CEACAM8; HeLa C8
T4 sequence (looked up): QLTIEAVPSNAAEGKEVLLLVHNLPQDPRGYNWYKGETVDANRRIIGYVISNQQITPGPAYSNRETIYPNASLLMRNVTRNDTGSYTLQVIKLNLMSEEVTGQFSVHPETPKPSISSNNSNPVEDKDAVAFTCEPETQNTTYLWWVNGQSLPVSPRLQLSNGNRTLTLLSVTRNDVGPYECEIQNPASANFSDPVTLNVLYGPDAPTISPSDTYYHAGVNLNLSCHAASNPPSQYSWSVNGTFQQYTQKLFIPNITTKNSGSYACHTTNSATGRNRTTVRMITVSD

B1: VH1/Vκ1 (antibody, IgG4, V domains shown)
VH: EVQLLESGGGLVQPGGSLRLSCAASGFIFSSHGMSWVRQAPGKGLEWVATISSGGTYTYYPDSVKGRFTISRDNSKNTLYLQMNSLKAEDTAMYYCARHDFDYDAAWFAYWGQGTLVTVSS
VL: QIVLTQSPALLSLSPGERATMSCSANSSVSYMYWYRQKPGQAPKPWIYLTSNLASGVPARFSGSGSGTDYTLTISSLEAEDFATYYCQQWSSNPPTFGQGTKLEIK
notes: IgG4 (S241P), kappa
B2: VH3/Vκ1 (antibody, IgG4, V domains shown)
VH: B1 VH with P61A, K87R
VL: B1 VL
notes: IgG4 (S241P), kappa
B3: VH2/Vκ2 (antibody, IgG4, V domains shown)
VH: B1 VH with K87R
VL: B1 VL with Q1E, L10T, M21L, S24R, R36Q, K44R, L53R, S55T, A79P
notes: IgG4 (S241P), kappa
B4: VH4/Vκ4 (antibody, IgG4, V domains shown)
VH: B1 VH with A49S, P61A, K87R, M93V
VL: B1 VL with Q1E, L10T, M21L, S24R, R36Q, K44R, L53R, S55T, V57I, A79P
notes: IgG4 (S241P), kappa
B5: VH1/Vκ11 (antibody, IgG4, V domains shown)
VH: B1 VH
VL: EIVLTQSPATLSLSPGERATLSCRANSSVSYMYWYQQKPGQAPRPWIYLTSNRATGIPARFSGSGSGTDYTLTISSLEPEDFAVYYCQQWSSNPPTFGQGTKLEIK
notes: IgG4 (S241P), kappa
B6: VH4/Vκ2 (antibody, IgG4, V domains shown)
VH: B1 VH with A49S, P61A, K87R, M93V
VL: B5 VL with I57V, V84T
notes: IgG4 (S241P), kappa
B7: VH1/Vκ4 (antibody, IgG4, V domains shown)
VH: B1 VH
VL: B5 VL with V84T
notes: IgG4 (S241P), kappa
B8: VH3/Vκ4 (antibody, IgG4, V domains shown)
VH: B1 VH with P61A, K87R
VL: B5 VL with V84T
notes: IgG4 (S241P), kappa
B9: VH4/Vκ1 (antibody, IgG4, V domains shown)
VH: B1 VH with A49S, P61A, K87R, M93V
VL: B1 VL
notes: IgG4 (S241P), kappa
B10: VH2/Vκ1 (antibody, IgG4, V domains shown)
VH: B1 VH with K87R
VL: B1 VL
notes: IgG4 (S241P), kappa
B11: VH2/Vκ4 (antibody, IgG4, V domains shown)
VH: B1 VH with K87R
VL: B5 VL with V84T
notes: IgG4 (S241P), kappa
B12: VH3/Vκ2 (antibody, IgG4, V domains shown)
VH: B1 VH with P61A, K87R
VL: B5 VL with I57V, V84T
notes: IgG4 (S241P), kappa

The target of one test is T1, CEACAM6 on transfected HeLa cells. The test is described as follows: flow cytometry, HeLa-CEACAM6 transfectants, % positive cells. As for the experimental part: Binding selectivity for CEACAM1 was tested for the 24 humanized antibody variants that bound to CEACAM1 (see Table 3), as well as the chimeric control antibody VH0/Vκ0, by flow cytometry on HeLa cells transfected with CEACAM1, 3, 5, 6 and 8. […] There was no evidence of any staining of the HeLa-CEACAM3 or HeLa-CEACAM8 transfectants. […] Due to its favorable affinity to and selectivity for CEACAM1 as well as its favorable expression level, VH1/Vκ8 was chosen as the framework for affinity maturation.
Background: Flow cytometry measures light scatter and fluorescence of single cells or particles in a stream.
Turning to B1, the binding result was “no binding”.
Consider B2, for which the binding result is recorded as “no binding”.
With B3, the binding result was “no binding”.
On the same count and under the same terms, the same measure for B4: “no binding”; for B5: “no binding”.
As to B6, the binding result is “no binding”.
On the same count and under the same terms, the same measure for B7: “no binding”; for B8: “no binding”; for B9: “no binding”.
On the same count and under the same terms, the same measure for B10: “no binding”.
Same read-out and setting: the same measure for B11: “no binding”.
Consider B12, for which the binding result is reported as “no binding”.

A further test addresses T2, His-tagged CEACAM1. The test is described as follows: SPR single-cycle, IgG captured. As for the experimental part:
As an alternative approach to assess the binding of the 36 antibody combinations and the three control antibodies to CEACAM1, a kinetic analysis was performed on a Biacore T200 (serial no. 1909913) running Biacore T200 Evaluation Software V2.0.1 (Uppsala, Sweden). All experiments were run at 25° C. with HBS-P+ running buffer (pH 7.4) (GE Healthcare, cat. no. BR100671). All kinetic experiments were performed using His-tagged CEACAM1 as the analyte. For all experiments, antibodies were immobilized onto a Series S Protein A sensor chip surface. For kinetic experiments, the amount of immobilized/captured ligand was limited to avoid mass transfer effects at the surface of the chip with the surface ideally having an analyte binding level (Rₘₐₓ) of 50-150 RUs. Using a MW of 45 kDa for the CEACAM1 analyte, 150 kDa for the antibody ligand (estimated value for IgG), 50 RU for Rmax and the stoichiometry (Sm) as 2 due to the ability of each antibody to bind 2 target molecules, a target response level of ˜75 RUs was set for capture of all the sample antibodies.
Single cycle analysis of the 36 antibody combinations and the three control antibodies was performed on purified antibodies (Vκ1 to Vκ6 variants) or on the supernatants of the transiently transfected HEK EBNA cells (Vκ7 to Vκ12 variants). In some instances, where supernatant was not available, purified chimeric antibody VH0/Vκ0 was spiked into HEK EBNA culture medium to use as a positive control. Antibodies were diluted in HBS-P+ to a concentration of 1 μg/ml (as determined by an IgG quantitation ELISA). At the start of each cycle, antibodies were loaded onto Fc2, Fc3 and Fc4 of a protein A chip and IgG captured at a flow rate of 8 μl/min to give an RU of ˜75. The surface was then allowed to stabilize. Single cycle kinetic data was obtained at a flow rate of 50 μl/min to minimize any potential mass transfer effects. Multiple repeats of the chimeric antibody VH0/Vκ0 were performed to check the stability of the surface and analyte over the kinetic cycles. The signal from the reference channel Fc1 (no antibody) was subtracted from that of Fc2, Fc3 and Fc4 to correct for differences in non-specific binding to a reference surface. A 5 point 2-fold dilution range from 3.125 to 50 nM CEACAM1 without regeneration between each concentration was used.
Broadly, the Kd is a measure of binding affinity in units of concentration. As for B1, the Kd came to 85 nM and the “relative KD to VH0/Vκ0” value is 2.
On the same counts, the results for B2 are 135 nM and 3.2.
Take B3: the Kd turned out to be 98 nM and the “relative KD to VH0/Vκ0” value was 2.3.
Regarding B4, the Kd is 120 nM and the “relative KD to VH0/Vκ0” value worked out at 2.9.
Turning to B5, the equilibrium dissociation constant (Kd) worked out at 143 nM and the “relative KD to VH0/Vκ0” value amounted to 3.5.
On the same counts, the results for B6 are 74 nM and 1.8.
For B7, in that order: 131 nM and 3.1.
On the same counts, the results for B8 are 81 nM and 1.9.
Take B9: the Kd amounted to 99 nM and the “relative KD to VH0/Vκ0” value stood at 2.4.
For B10, the equilibrium dissociation constant (Kd) was determined as 113 nM and the “relative KD to VH0/Vκ0” value amounted to 2.7.
For B11, the Kd was 103 nM and the “relative KD to VH0/Vκ0” value stood at 2.5.
Consider B12, for which the dissociation constant Kd is 103 nM and the “relative KD to VH0/Vκ0” value was determined as 2.5.

The next test concerns the target T3, CEACAM3 on transfected HeLa cells. The test is described as follows: flow cytometry, transfected HeLa. The essentials:
(§1)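 Flow cytometry was done on HeLa cells stably expressing single CEACAM family members, cultured in DMEM with 10% fetal bovine serum at 37° C, 5.0% CO₂, and stained with the test antibody, then a fluorochrome-conjugated isotype-specific secondary antibody, with DAPI for viability. Staining of each transfectant serves as the readout of binding selectivity.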
Consider B1, for which the binding result is “no binding”.
The same measure, in the same setting: the same measure for B2: “no binding”; for B3: “no binding”; for B4: “no binding”.
Still for that read-out and setting: the same measure for B5: “no binding”; for B6: “no binding”; for B7: “no binding”.
On the same count and under the same terms, the same measure for B8: “no binding”; for B9: “no binding”.
Regarding B10, the binding result is on record as “no binding”.
B11: the binding result is listed as “no binding”.
In the case of B12, the binding result was “no binding”.

For another test, the target named is T4, CEACAM8 on transfected HeLa cells. Briefly: flow cytometry, transfected HeLa. The essentials:
as §1
Regarding B1, the binding result is given as “no binding”.
With B2, the binding result is recorded as “no binding”.
On the same count and under the same terms, the same measure for B3: “no binding”; for B4: “no binding”.
On the same count and under the same terms, the same measure for B5: “no binding”; for B6: “no binding”.
As to B7, the binding result is reported as “no binding”.
In the case of B8, the binding result is given as “no binding”.
With B9, the binding result was “no binding”.
In the case of B10, the binding result is reported as “no binding”.
The same measure, in the same setting: the same measure for B11: “no binding”; for B12: “no binding”.
